Measurements published in PMC9482650, “Quantitative fragmentomics allow affinity mapping of interactomes” (Nature Communications, 2022).

Assays:
Assay in all cases: holdup assay
Design in all cases: key: below the threshold = too weak to quantify, mostly under pKd 3.1 to 4
GRIP2_3, Q9C0E4 = target: GRIP2_3, Q9C0E4
ARHGEF12, Q9NZN5-2 = target: ARHGEF12, Q9NZN5-2
LRRC7, Q96NW7 = target: T1, LRRC7, Q96NW7
T1 sequence (Q96NW7 1440-1537, limits assumed, looked up): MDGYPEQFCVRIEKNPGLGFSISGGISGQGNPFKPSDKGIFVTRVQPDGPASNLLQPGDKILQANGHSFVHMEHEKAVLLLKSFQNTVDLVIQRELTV

DLG2_3, Q15700 = target: DLG2_3, Q15700
GRIP2_6, Q9C0E4 = target: GRIP2_6, Q9C0E4
Inadl_1, Q8NI35 = target: Inadl_1, Q8NI35
NHERF3_4, Q5T2W1 = target: T2, NHERF3_4, Q5T2W1
T2 sequence (Q5T2W1 373-468, limits assumed, looked up): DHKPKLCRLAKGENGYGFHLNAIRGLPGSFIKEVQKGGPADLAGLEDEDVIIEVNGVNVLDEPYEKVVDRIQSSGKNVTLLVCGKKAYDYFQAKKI

TJP1_2, Q07157 = target: TJP1_2, Q07157
SCRIB_2, Q14160 = target: SCRIB_2, Q14160
TX1BP3, O14907 = target: T3, TX1BP3, O14907
T3 sequence (O14907 10-122, limits assumed, looked up): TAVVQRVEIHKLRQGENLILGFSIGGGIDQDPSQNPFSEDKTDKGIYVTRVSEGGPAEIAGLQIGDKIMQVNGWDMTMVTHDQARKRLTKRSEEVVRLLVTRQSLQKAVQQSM

FRMPD2_1, Q68DX3 = target: FRMPD2_1, Q68DX3
GRIP2_5, Q9C0E4 = target: GRIP2_5, Q9C0E4
LDB3, O75112 = target: LDB3, O75112
PDZRN3_1, Q9UPQ7 = target: T4, PDZRN3_1, Q9UPQ7
T4 sequence (Q9UPQ7 244-349, limits assumed, looked up): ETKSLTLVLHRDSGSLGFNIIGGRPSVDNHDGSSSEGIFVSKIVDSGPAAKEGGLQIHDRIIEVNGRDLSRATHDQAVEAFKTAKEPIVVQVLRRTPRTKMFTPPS

MPP2, Q14168 = target: T5, MPP2, Q14168
T5 sequence (Q14168 180-250, limits assumed, looked up): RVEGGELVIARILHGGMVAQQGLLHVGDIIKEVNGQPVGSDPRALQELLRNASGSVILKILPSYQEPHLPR

MAST2, Q6P0Q8 = target: MAST2, Q6P0Q8
SNTB1, Q13884 = target: T6, SNTB1, Q13884
T6 sequence (Q13884 107-205, limits assumed, looked up): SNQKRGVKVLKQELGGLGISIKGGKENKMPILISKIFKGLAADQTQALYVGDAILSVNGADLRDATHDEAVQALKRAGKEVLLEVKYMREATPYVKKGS

PDLIM1, O00151 = target: PDLIM1, O00151
DLG3_1, Q92796 = target: T7, DLG3_1, Q92796
T7 sequence (Q92796 125-227, limits assumed, looked up): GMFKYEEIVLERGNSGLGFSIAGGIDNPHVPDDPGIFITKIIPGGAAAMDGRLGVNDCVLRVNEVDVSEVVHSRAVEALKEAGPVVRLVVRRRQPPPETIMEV

HTRA4, P83105 = target: T8, HTRA4, P83105
T8 sequence (P83105 378-476, limits assumed, looked up): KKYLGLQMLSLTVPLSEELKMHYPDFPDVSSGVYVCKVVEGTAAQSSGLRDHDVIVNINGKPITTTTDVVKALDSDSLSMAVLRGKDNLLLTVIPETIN

GORASP2, Q9H8Y8 = target: GORASP2, Q9H8Y8
MPP6, Q9NZW5 = target: T9, MPP6, Q9NZW5
T9 sequence (Q9NZW5 125-219, limits assumed, looked up): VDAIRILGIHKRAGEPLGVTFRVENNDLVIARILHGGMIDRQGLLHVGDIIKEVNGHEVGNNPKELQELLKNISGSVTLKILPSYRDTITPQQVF

LNX1_3, Q8TBB1 = target: LNX1_3, Q8TBB1
DLG2_2, Q15700 = target: DLG2_2, Q15700
NHERF3_1, Q5T2W1 = target: T10, NHERF3_1, Q5T2W1
T10 sequence (Q5T2W1 4-100, limits assumed, looked up): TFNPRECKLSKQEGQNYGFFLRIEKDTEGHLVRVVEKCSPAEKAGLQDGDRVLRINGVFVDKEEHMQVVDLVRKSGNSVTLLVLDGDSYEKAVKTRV

LIN7B, Q9HAP6 = target: T11, LIN7B, Q9HAP6
T11 sequence (Q9HAP6 88-185, limits assumed, looked up): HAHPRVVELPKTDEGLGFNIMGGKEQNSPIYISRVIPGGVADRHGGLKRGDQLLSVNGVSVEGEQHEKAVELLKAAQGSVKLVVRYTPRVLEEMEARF

[1] = plain residues with an end cap or a label only (N-terminal biotin on a linker: ahx)
[2] = plain residues with an end cap or a label only (N-terminal biotin on a linker: ttds)

TJP1_2, Q07157, sequence (Q07157 181-274): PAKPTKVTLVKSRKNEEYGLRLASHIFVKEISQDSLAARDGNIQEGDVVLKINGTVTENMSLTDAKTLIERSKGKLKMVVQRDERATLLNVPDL
LNX1_3, Q8TBB1, sequence (Q8TBB1 500-596): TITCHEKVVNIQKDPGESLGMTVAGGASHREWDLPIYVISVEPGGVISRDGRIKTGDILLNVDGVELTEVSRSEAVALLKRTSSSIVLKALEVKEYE
SCRIB_2, Q14160, sequence (Q14160 857-960): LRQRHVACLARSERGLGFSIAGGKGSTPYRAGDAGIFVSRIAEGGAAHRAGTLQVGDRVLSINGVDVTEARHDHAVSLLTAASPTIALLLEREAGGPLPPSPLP
Inadl_1, Q8NI35, sequence (Q8NI35 113-229): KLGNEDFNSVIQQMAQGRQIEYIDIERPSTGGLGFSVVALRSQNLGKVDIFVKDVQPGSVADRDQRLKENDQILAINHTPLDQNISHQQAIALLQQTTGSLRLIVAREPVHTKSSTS
FRMPD2_1, Q68DX3, sequence (Q68DX3 770-861): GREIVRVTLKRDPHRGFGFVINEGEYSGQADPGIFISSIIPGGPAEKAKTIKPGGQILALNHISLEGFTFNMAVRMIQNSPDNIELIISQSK
MAST2, Q6P0Q8, sequence (Q6P0Q8 1099-1202): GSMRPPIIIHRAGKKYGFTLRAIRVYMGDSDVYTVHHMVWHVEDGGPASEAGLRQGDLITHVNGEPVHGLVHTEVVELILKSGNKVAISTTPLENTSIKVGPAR
GRIP2_3, Q9C0E4, sequence (Q9C0E4 238-339): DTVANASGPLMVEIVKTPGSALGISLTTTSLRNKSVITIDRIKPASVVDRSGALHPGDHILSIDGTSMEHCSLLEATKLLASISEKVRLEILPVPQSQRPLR
GRIP2_6, Q9C0E4, sequence (Q9C0E4 648-740): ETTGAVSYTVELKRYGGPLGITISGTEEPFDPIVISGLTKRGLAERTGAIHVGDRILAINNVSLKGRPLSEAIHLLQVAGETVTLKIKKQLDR
ARHGEF12, Q9NZN5-2, sequence (Q9NZN5 other isoform, or with tags, fused parts or gaps): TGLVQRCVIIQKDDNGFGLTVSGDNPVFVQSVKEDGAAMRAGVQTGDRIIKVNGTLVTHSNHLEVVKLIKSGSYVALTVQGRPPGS
GRIP2_5, Q9C0E4, sequence (Q9C0E4 544-642): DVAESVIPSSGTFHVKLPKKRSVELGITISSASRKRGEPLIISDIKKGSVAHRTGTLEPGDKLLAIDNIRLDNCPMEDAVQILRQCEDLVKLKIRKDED
LDB3, O75112, sequence (O75112 1-94): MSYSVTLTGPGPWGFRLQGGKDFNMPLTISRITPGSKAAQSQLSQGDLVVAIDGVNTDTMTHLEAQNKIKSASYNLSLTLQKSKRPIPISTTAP
PDLIM1, O00151, sequence (O00151 1-87): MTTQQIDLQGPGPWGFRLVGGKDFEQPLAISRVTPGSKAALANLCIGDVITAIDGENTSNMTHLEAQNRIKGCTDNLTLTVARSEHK

B1: KCTD3, Q9Y597 (peptide)
chain: SDSSGQEYSL
B1 was tested, and the pKd (GRIP2_3, Q9C0E4; [1]) was “below the threshold”, the pKd (ARHGEF12, Q9NZN5-2; [1]) was “below the threshold” and the pKd (LRRC7, Q96NW7; [1]) was “below the threshold”. The pKd (DLG2_3, Q15700; [1]) was “below the threshold”, the pKd (GRIP2_6, Q9C0E4; [1]) was 3.6 and the pKd (Inadl_1, Q8NI35; [1]) was “below the threshold”. The pKd (NHERF3_4, Q5T2W1; [1]) was “below the threshold”, the pKd (TJP1_2, Q07157; [1]) was “below the threshold” and the pKd (SCRIB_2, Q14160; [1]) was “below the threshold”. For the same binder, the pKd (TX1BP3, O14907; [1]) was “below the threshold”, the pKd (FRMPD2_1, Q68DX3; [1]) was “below the threshold” and the pKd (GRIP2_5, Q9C0E4; [1]) was “below the threshold”. For the same binder, the pKd (LDB3, O75112; [1]) was “below the threshold”, the pKd (PDZRN3_1, Q9UPQ7; [1]) was “below the threshold” and the pKd (MPP2, Q14168; [1]) was “below the threshold”. The pKd (MAST2, Q6P0Q8; [1]) was 4.53, the pKd (SNTB1, Q13884; [1]) was “below the threshold” and the pKd (PDLIM1, O00151; [1]) was “below the threshold”. For the same binder, the pKd (DLG3_1, Q92796; [1]) was “below the threshold”, the pKd (HTRA4, P83105; [1]) was “below the threshold” and the pKd (GORASP2, Q9H8Y8; [1]) was “below the threshold”. For the same binder, the pKd (MPP6, Q9NZW5; [1]) was 3.83, the pKd (LNX1_3, Q8TBB1; [1]) was “below the threshold” and the pKd (DLG2_2, Q15700; [1]) was “below the threshold”. For the same binder, the pKd (NHERF3_1, Q5T2W1; [1]) was 3.8 and the pKd (LIN7B, Q9HAP6; [1]) was “below the threshold”.

B2: TMIGD1, Q6UXZ0 (peptide)
chain: DKDPHSETAL
With B2 the pKd (GRIP2_3, Q9C0E4; [2]) was “below the threshold”, the pKd (ARHGEF12, Q9NZN5-2; [2]) was 4.17 and the pKd (LRRC7, Q96NW7; [2]) was “below the threshold”. For the same binder, the pKd (DLG2_3, Q15700; [2]) was “below the threshold”, the pKd (GRIP2_6, Q9C0E4; [2]) was “below the threshold” and the pKd (Inadl_1, Q8NI35; [2]) was “below the threshold”. The pKd (NHERF3_4, Q5T2W1; [2]) was 3.52, the pKd (TJP1_2, Q07157; [2]) was “below the threshold” and the pKd (SCRIB_2, Q14160; [2]) was 4.23. For the same binder, the pKd (TX1BP3, O14907; [2]) was 4.03, the pKd (FRMPD2_1, Q68DX3; [2]) was “below the threshold” and the pKd (GRIP2_5, Q9C0E4; [2]) was “below the threshold”. For the same binder, the pKd (LDB3, O75112; [2]) was “below the threshold”, the pKd (PDZRN3_1, Q9UPQ7; [2]) was 4.64 and the pKd (MPP2, Q14168; [2]) was “below the threshold”. For the same binder, the pKd (MAST2, Q6P0Q8; [2]) was 5.64, the pKd (SNTB1, Q13884; [2]) was 4.53 and the pKd (PDLIM1, O00151; [2]) was “below the threshold”. For the same binder, the pKd (DLG3_1, Q92796; [2]) was “below the threshold”, the pKd (HTRA4, P83105; [2]) was “below the threshold” and the pKd (GORASP2, Q9H8Y8; [2]) was “below the threshold”. For the same binder, the pKd (MPP6, Q9NZW5; [2]) was “below the threshold”, the pKd (LNX1_3, Q8TBB1; [2]) was “below the threshold” and the pKd (DLG2_2, Q15700; [2]) was “below the threshold”. For the same binder, the pKd (NHERF3_1, Q5T2W1; [2]) was 5.42 and the pKd (LIN7B, Q9HAP6; [2]) was “below the threshold”.

B3: HPV35-E6, P27228 (peptide)
chain: SKPTRRETEV
B3 was tested, and the pKd (GRIP2_3, Q9C0E4; [2]) was “below the threshold”, the pKd (ARHGEF12, Q9NZN5-2; [2]) was 4.06 and the pKd (LRRC7, Q96NW7; [2]) was 3.59. For the same binder, the pKd (DLG2_3, Q15700; [2]) was 5.31, the pKd (GRIP2_6, Q9C0E4; [2]) was “below the threshold” and the pKd (Inadl_1, Q8NI35; [2]) was “below the threshold”. For the same binder, the pKd (NHERF3_4, Q5T2W1; [2]) was “below the threshold”, the pKd (TJP1_2, Q07157; [2]) was “below the threshold” and the pKd (SCRIB_2, Q14160; [2]) was 4.7. The pKd (TX1BP3, O14907; [2]) was 4.93, the pKd (FRMPD2_1, Q68DX3; [2]) was 3.49 and the pKd (GRIP2_5, Q9C0E4; [2]) was “below the threshold”. The pKd (LDB3, O75112; [2]) was “below the threshold”, the pKd (PDZRN3_1, Q9UPQ7; [2]) was 4.89 and the pKd (MPP2, Q14168; [2]) was “below the threshold”. For the same binder, the pKd (MAST2, Q6P0Q8; [2]) was 5.09, the pKd (SNTB1, Q13884; [2]) was 4.68 and the pKd (PDLIM1, O00151; [2]) was “below the threshold”. For the same binder, the pKd (DLG3_1, Q92796; [2]) was 4.45, the pKd (HTRA4, P83105; [2]) was “below the threshold” and the pKd (GORASP2, Q9H8Y8; [2]) was 3.82. The pKd (MPP6, Q9NZW5; [2]) was “below the threshold”, the pKd (LNX1_3, Q8TBB1; [2]) was “below the threshold” and the pKd (DLG2_2, Q15700; [2]) was 5.27. The pKd (NHERF3_1, Q5T2W1; [2]) was 4.04 and the pKd (LIN7B, Q9HAP6; [2]) was 3.49.
